Laboratory results: patent US20240409645A1 (DUALYX, published 2024)

T1: cynomolgus monkey IL-2Rα/CD25 subunit (cynomolgus monkey, UniProt H6WS54 22-213)
T1 construct: also called Cyno IL-2R subunit
T1 sequence: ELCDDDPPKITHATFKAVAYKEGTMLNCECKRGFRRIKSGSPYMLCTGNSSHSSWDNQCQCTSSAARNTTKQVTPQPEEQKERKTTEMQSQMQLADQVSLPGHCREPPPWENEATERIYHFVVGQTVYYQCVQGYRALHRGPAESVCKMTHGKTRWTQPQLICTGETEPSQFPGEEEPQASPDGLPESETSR

T2: human interleukin-2 receptor α-chain (IL-2Rα; CD25), recombinant protein (human, UniProt P01589 22-240, limits assumed)
T2 construct: also called huIL2R-a; hIL-2RA
T2 sequence: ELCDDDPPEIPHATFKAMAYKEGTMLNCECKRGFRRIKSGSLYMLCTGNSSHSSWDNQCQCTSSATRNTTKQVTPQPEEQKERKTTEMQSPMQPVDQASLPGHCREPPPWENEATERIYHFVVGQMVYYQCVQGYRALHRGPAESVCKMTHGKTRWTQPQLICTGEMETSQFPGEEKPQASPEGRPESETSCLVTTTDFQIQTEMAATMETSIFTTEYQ

T3: cynomolgus monkey IL-2Rβ/CD122 subunit (cynomolgus monkey, UniProt Q38J85 27-239, limits assumed)
T3 construct: also called Cyno IL-2R subunit
T3 sequence (looked up): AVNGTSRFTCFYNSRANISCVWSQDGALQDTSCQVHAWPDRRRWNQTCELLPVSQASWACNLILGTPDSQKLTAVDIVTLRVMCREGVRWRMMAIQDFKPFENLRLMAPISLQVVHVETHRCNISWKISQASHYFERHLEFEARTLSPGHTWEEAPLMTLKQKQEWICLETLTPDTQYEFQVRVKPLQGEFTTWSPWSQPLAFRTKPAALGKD

T4: human interleukin-2 receptor β-chain (IL-2Rβ; CD122), recombinant protein (human, UniProt P14784 27-240)
T4 construct: also called human IL-2R subunit CD122
T4 sequence: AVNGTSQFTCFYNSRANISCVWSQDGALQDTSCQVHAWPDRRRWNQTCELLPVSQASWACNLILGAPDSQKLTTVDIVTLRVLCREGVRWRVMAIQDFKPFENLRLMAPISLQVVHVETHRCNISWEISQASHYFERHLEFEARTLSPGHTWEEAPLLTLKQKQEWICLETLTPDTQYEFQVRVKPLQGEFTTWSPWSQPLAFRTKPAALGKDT


Legend:
[1] = target: T1, cynomolgus monkey IL-2Rα/CD25 subunit; test: ELISA, bivalent VHH-hFc
Method: (§1) Monospecific monovalent and bivalent IL-2Rα-, IL-2Rβ- and IL-2Rγ-specific antibodies that were selected on human IL-2R subunits, were evaluated for their cross-reactivity in an ELISA. Human and cynomolgus monkey receptor subunits (Acrobiosystems, KactusBiosystems) were coated at 1 μg/mL in PBS (pH 7.4) in a Maxisorp plate (Nunc) and incubated overnight at 4° C. The plates were further washed with PBS-Tween pH 7.4 and incubated with 1% cascin/PBS-Tween blocking solution for 1 hour shaking at 400 rpm. Subsequently, the plate was washed three times with PBS-Tween pH 7.4, after which the test antibodies diluted in 0.1% casein/PBS-Tween were added to the plate and incubated for 1 hour. The plate was again washed three times, after which goat anti-human IgG Fc (HRP) detection antibody (abcam) was added to the plate and incubated for 30 min. The colouring reaction was performed with TMB (Sigma-Aldrich) and stopped with 0.5N H₂SO₄.
(§2) Absorbance was measured at 450 nm with the reference wavelength of 620 nm using spectrophotometer. Final analysis and graphic output were performed with GraphPad Prism version 8 (GraphPad Software). The dose-response binding curves were fit to a nonlinear regression model (log (agonist) vs. response with a variable slope (four parameters)).

[2] = target: T2, human interleukin-2 receptor α-chain …; test: ELISA, bivalent VHH-hFc
Method: as §1, §2

[3] = target: T1, cynomolgus monkey IL-2Rα/CD25 subunit; test: ELISA, bivalent; EC50 cyno vs human subunit
Method: as §1, §2

[4] = target: T3, cynomolgus monkey IL-2Rβ/CD122 subunit; test: ELISA, bivalent VHH-hFc
Method: as §1, §2

[5] = target: T4, human interleukin-2 receptor β-chain …; test: ELISA, bivalent VHH-hFc
Method: as §1, §2

[6] = target: T3, cynomolgus monkey IL-2Rβ/CD122 subunit; test: ELISA, bivalent; EC50 cyno vs human subunit
Method: as §1, §2

[7] = target: T2, human interleukin-2 receptor α-chain …; test: P.E. binding ELISA
Method in brief: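 Human or mouse IL-2Rα, IL-2Rβ or IL-2Rγ protein coated directly overnight at 4° C, blocked with 4% Marvel/PBS for 1 hour.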

[8] = target: T2, human interleukin-2 receptor α-chain …; test: P.E. off-rate SPR
Method in brief: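 Recombinant receptor was amine-coupled in acetate buffer onto a CM5 carboxymethyl dextran chip at approximately 2500 RU. VHH-containing periplasmic extracts were injected at 30 uL/min, and dissociation was followed for 120s to give off-rates.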

EC50 [1] [nM]	EC50 [2] [nM]	Fold change [3] [fold]	Binder	further results
0.11	0.093	1.2	11-MP05H04 VHH-hFc, monospecific bivalent (Fc fusion, IgG1 Fc LALA-PG; not shown: human IgG1 CH2 and CH3 domains (Fc)) QLQLVESGGGLVQAGGSLRLSCAASGLTFEGYAIGWFRQAPGKEREGVSYITGSDGTTYYINSVKGRFTISSDNAKSTVYLQMNTLKPEDTAVYYCAVDRLGSQGRYASAWWRSGDMDLWGKGTQVTVSS	–
–	–	–	193-MP02F12 VHH-hFc, monospecific bivalent (Fc fusion, IgG1 Fc LALA-PG; not shown: human IgG1 CH2 and CH3 domains (Fc)) QLQLVESGGGLVQTGTSLRLSCAASGHTSRINAMGWFRQFPGKEREFVAAISRNGGSTVYVDSVKGRFTISRDNAKSTVYLQMNSLKPEDTAVYYCTATDAVGWTTRWMTADFGFWGQGTQVTVSS	EC50 [4]: 0.099 nM; EC50 [5]: 0.087 nM; Fold change [6]: 1.1 fold
0.095	0.06	1.6	5-MP01F05 VHH-hFc, monospecific bivalent (Fc fusion, IgG1 Fc LALA-PG; not shown: human IgG1 CH2 and CH3 domains (Fc)) EVQLVESGGGLVQAGGSLRLSCAASIRAFTTWSMAWFRQAPGKEREYVARINVSGSVTYYADFVKGRFTISRDNAKKTMYLEMNNLKPEDTALYYCAADRTGVGTNDYNYWGQGTQVTVSS	–
–	0.047	–	92-MP05C07 VHH-hFc, monospecific bivalent (Fc fusion, IgG1 Fc LALA-PG; not shown: human IgG1 CH2 and CH3 domains (Fc)) QVQLVESGGGSVQAGGSLRLSCEASGRTLFSSYGMGWFRQAPGKEREFVGAISRFGTYTSYADPVKDRFTISRDNAKSTVYLQMNNTKPEDTAVYYCAAYTYSGSFYSTVKTHHDEYRYWGQGTQVTVSS	binding result [1]: no binding
–	–	–	189-MP02B12 VHH-hFc, monospecific bivalent (Fc fusion, IgG1 Fc LALA-PG; not shown: human IgG1 CH2 and CH3 domains (Fc)) QVQLVESGGGLVQAGGSLRLSCAASGRADSNAIMAWFRQAPGKEREFIVAVTYSGMPTYQDDSVQGRFTASRDNAKNTVYLQMNSLKPEDTAVYYCAARMYSASTYYGDYDYWGQGTQVTVSS	EC50 [4]: 0.066 nM; EC50 [5]: 0.053 nM; Fold change [6]: 1.3 fold
–	–	–	184-MP02E11 VHH-hFc, monospecific bivalent (Fc fusion, IgG1 Fc LALA-PG; not shown: human IgG1 CH2 and CH3 domains (Fc)) QVQLQESGGGLVQAGGSLRLSCAASGRTFSNYVMAWFRQAPGKEREFVGAITQTGRGTFYADSVEGRFTISRINDKNTVYLQMNSLKPEDTAVYYCSAPRSGRAGTRNQMDYEYWGQGTQVTVSS	EC50 [4]: 0.074 nM; EC50 [5]: 0.059 nM; Fold change [6]: 1.3 fold
0.062	0.065	1	9-MP05G01 VHH-hFc, monospecific bivalent (Fc fusion, IgG1 Fc LALA-PG; not shown: human IgG1 CH2 and CH3 domains (Fc)) EVQLVESGGGLVQAGGSLRLSCAASGGSIYTYNMGWFRQAPGKEREFVAGTLWSGGDSVYADFAKGRFTLSRENAKNTLYLQMNSLKPEDTATYYCAIDPLSLTSDWRVDELSSWGKGTLVTVSS	–
0.067	0.072	0.9	7-MP01G08 VHH-hFc, monospecific bivalent (Fc fusion, IgG1 Fc LALA-PG; also called 07-MP01G08; not shown: human IgG1 CH2 and CH3 domains (Fc)) EVQLVESGGGLVQAGGSLRLSCAASGRAFSMYNMGWFRQAPGKEREFVAATGWSGANTPYADSVKGRFTISRDNTQNTVYLQMNSLKPEDTATYYCAADSIRLRSDVTRIPLEYDYWGQGTQVTVSS	–
0.084	0.074	1.1	12-MP05B12 VHH-hFc, monospecific bivalent (Fc fusion, IgG1 Fc LALA-PG; not shown: human IgG1 CH2 and CH3 domains (Fc)) QVQLVESGGGLVQAGGSLRLSCAASGFTFDGYAIGWFRQAPGKEREGVSYITGSDGSTYYADSVKGRFTISSNNAKNTVYLHMNSLKPDDAAVYYCAIDRLGSRGAYVPIWWRSSDMDLWGKGTLVTVSS	–
0.05	0.056	0.9	6-MP01G05 VHH-hFc, monospecific bivalent (Fc fusion, IgG1 Fc LALA-PG; not shown: human IgG1 CH2 and CH3 domains (Fc)) QVQLQESGGGLVQAGGSLRLSCAASGRTFSSYAMGWFRQAPGKEREFVAVISWNVDNTEYTDSVKGRFTISRDNDKNMVYLQMNSLKPEDTAVYYCAADSIPLSSDMSPTATEYGYWGQGTQVTVSS	–
0.106	0.057	1.9	3-MP01E03 VHH-hFc, monospecific bivalent (Fc fusion, IgG1 Fc LALA-PG; not shown: human IgG1 CH2 and CH3 domains (Fc)) QVQLVESGGGLVQAGGSLRLSCTASGRTLSSYSMAWFRQAADKGREFVTAISSSGVVTHVLDSVKGRFTISRDNAKNTVYLQMNSLQPEDTALYFCAGTASSYSTYEANYNYWGQGTLVTVSS	–
–	–	–	297-MP06A08 VHH-hFc, monospecific bivalent (Fc fusion, IgG1 Fc LALA-PG; not shown: human IgG1 CH2 and CH3 domains (Fc)) EVQLVESGGGLVQAGESLRLSCAASGQYFSTYSMAWFRRTPGKEREFVTIISESGGIKEYVDSVKGRFTVSRDNAKNTVYLQMNSLKPEDTAVYYCAAARDWFARNEYQYDYWGQGTQVTVSS	EC50 [4]: 0.09 nM; EC50 [5]: 0.079 nM; Fold change [6]: 1.2 fold
0.043	0.038	1.1	2-MP01A02 VHH-hFc, monospecific bivalent (Fc fusion, IgG1 Fc LALA-PG; also called anti-IL-2Rα Ab 2; not shown: human IgG1 CH2 and CH3 domains (Fc)) QVQLVESGGGLVQPGGSLRLSCATSGFTFRNNFMSWVRQAPGKGLEWVSTISYGGESTTYAESVKGRFTISRDNAKNTLYLQMNNLKPEDTAVYYCAKATSYDSIRSGSRGQGTQVTVSS	–
0.054	0.051	1.1	8-MP01C12 VHH-hFc, monospecific bivalent (Fc fusion, IgG1 Fc LALA-PG; also called anti-IL-2Rα Ab 8; anti-IL-2Rα VHH 8; not shown: human IgG1 CH2 and CH3 domains (Fc)) QVQLVESGGGLVQPGGSLRLSCATSGFTFSNNFMSWVRQAPGKGLEFVSTISYGGESTTYAEAVKGRFTISRDNAKNTLYLQMNNLKPEDTAIYYCAKATSYTSIRGAPRGQGTQVTVSS	–
0.051	0.049	1	13-MP05E12 VHH-hFc, monospecific bivalent (Fc fusion, IgG1 Fc LALA-PG; not shown: human IgG1 CH2 and CH3 domains (Fc)) QVQLQESGGGLVQAGDSLRLSCAASGFNFGWHAMGWFRQAPGKEREFVATITWTGRDTYYADSVRGRFTISKDNAKDTLFLQMNSLRPDDTGVYYCAKARERATWAYSEDDCDYWGQGTQVTVSS	–
–	–	–	1-MP01H01 VHH (periplasmic extract) (VHH, soluble VHH in periplasmic extract) VHH: EVQLVESGGGLVQAGGSLRLSCAASGRTFRTHNMGWFRRAPGKEREFVAAISWNVDNTLYADSVKGRFTISRDNGRNMVYLQMNSLKPEDTAVYYCAADNIPLSSDVAATATEYDYWGQGTQVTVSS	OD450 nm [7]: 1.71 OD450 nm; koff [8]: 0.0229 s⁻¹
0.061	0.052	1.2	1-MP01H01 VHH-hFc, monospecific bivalent (Fc fusion, IgG1 Fc LALA-PG; not shown: human IgG1 CH2 and CH3 domains (Fc)) EVQLVESGGGLVQAGGSLRLSCAASGRTFRTHNMGWFRRAPGKEREFVAAISWNVDNTLYADSVKGRFTISRDNGRNMVYLQMNSLKPEDTAVYYCAADNIPLSSDVAATATEYDYWGQGTQVTVSS	–
0.056	0.053	1.1	4-MP01F04 VHH-hFc, monospecific bivalent (Fc fusion, IgG1 Fc LALA-PG; not shown: human IgG1 CH2 and CH3 domains (Fc)) QVQLVESGGGLVQAGGSLRLSCAASGGTFRTRNMGWFRRAPGKEREFVAAVSWNVDNKLYADSVKGRFTISRDNGRNMVYLQMNSLKPEDTAVYYCAADNIPLSSDMRPTATEYDYWGQGTQVTVSS	–
0.06	0.061	1	10-MP05F03 VHH-hFc, monospecific bivalent (Fc fusion, IgG1 Fc LALA-PG; also called anti-IL-2Rα Ab 10; anti-IL-2Rα VHH 10; not shown: human IgG1 CH2 and CH3 domains (Fc)) QVQLVESGGGLVQAGGSLRLSCAASGIPFDNYAMGWFRQAPGKEREFVAARDLEGIITRYGDSVKGRFTISRGNAKNTVFLQMNSLKPEDTAVYYCAARDGGVVAGSRSSAQYNYWGQGTQVTVSS	–
